Columns and labels:
Assay type in all cases: biochemical
[1] = target: T1, aFGF (Homo sapiens, UniProt P05230); assay: Copper-catalyzed oxidation of aFGF thiol groups
T1 construct: The recombinant derived, 140 amino add form is the preferred form of aFGF; N-terminal methionine (MetHaFGF); made in house; host or cells: microbial cells (preferred embodiment)
Method: Copper-catalyzed oxidation of aFGF is carried out in the following manner. Acidic FGF (about 80 μg/ml) is incubated in a 20 mM Tris, 0.15M potassium chloride, pH 8 solution containing about 20 μM cuptic chloride for varying periods of time at room temperature. The reaction was terminated by the addition of 100 mM EDTA in the same buffer. A solution of about 0.7 ml of 0.25M Tris (about pH 8) containing about 2 mM EDTA and about 7 M GuHC1 is then added followed by about 35 μl of 4 mg/ml of DTNB (Sigma). Samples were incubated for 30 minutes, filtered through a 0.22 micron filter and the optical density measured at about 412 nm to determine sulfhydryl content, Riddles et al., Meth. Enzymol. 9:49-60 (1983). Relative standard deviation of the obtained values during time course experiments is 12%.
Acidic FGF contains three free cysteine residues at positions […], 83 and 117 in the polypeptide chain. […] It has also been shown that the copper catalyzed oxidative formation of a disulfide bond in the wild-type aFGF inactivates the protein in an in vitro mitogenic assay, Ortega et al., J. Biol. Chem. 266:5842-5846 (1991). Therefore, it was of interest to determine the extent to which heparin can stabilize aFGF against inactivation by oxidation. […] Samples contained 80 μg/ml aFGF with (a) 3X heparin by weight, (b) 0.1X heparin by weight and (c) buffer alone. As heparin was introduced and its concentration increased, the rate of copper-catalyzed oxidation decreased. For example, after 20 minutes, greater than 95% of the cysteine residues of aFGF are protected from oxidation with 3X heparin. FIG. 4B illustrates the fraction of remaining reactive thiol groups after a 10-minute incubation with cupric chloride as a function of heparin concentration.
Some aggregation of aFGF occurs under the conditions of these experiments presumably due to at least partial intermolecular disulfide formation. Thus, these measurements could simply be a measurement of the loss of solubility induced by copper association with aFGF. Several experiments, however, argue against this possibility. First, previous work has shown that at dilute protein concentration, copper does indeed catalyze oxidation of thiol groups of aFGF, Ortega et al., J. Biol. Chem. 266:5842-5846 (199 1 ). Second, as a control experiment, the copper-catalyzed oxidation of aFGF was carded out in a buffer containing 6 M GuHCl. Under these denaturing conditions, nearly 100% of the thiol groups in solution were lost after 10 minutes without visible aggregation. […] Regardless of the precise mechanism, copper addition is a distinct mechanism of inactivation compared to thermal stress.
Similar protection against oxidation experiments were carried out with other negatively charged compounds with an excess of ligand (3X by weight except for sodium sulfate at 120 mM and tetrapolyphosphate at 10 mM) added to aFGF before copper catalyzed oxidation. As shown in the second column of Table 2, all of these agents at least partially protect the cysteine residues of aFGF from oxidation.
^(b) Percentage of aFGF thiols remaining in solution after 10 min
incubation with cupric chloride. Experimental conditions are described in
FIG. 10. All samples contained ligand at 3× (by weight) except
sodium sulfate (120 mM) and tetrapolyphosphate (10 mM).

[2] = target: T1, aFGF; assay: Thermal denaturation (Tm) of aFGF by circular dichroism; details: buffer alone
Method: Circular Dichroism (CD) spectra are measured with an AVIV 62 DS spectropolarimeter. Samples of aFGF at about 100 μg/ml in a PBS buffer (6 mM sodium phosphate, 120 mM NaCl, pH 7.2) containing various ligands are placed into 1 mm pathlength cells and the cell temperature is controlled by circulating a water/ethylene glycol mixture through the cell holder. Thermal denaturation is carded out under computer control by increasing the temperature of the water bath in 2° C. increments, followed by a two-minute equilibration period at each temperature to allow the sample to reach thermal equilibrium. Reproducibility of the midpoint of these temperature melting curves (Tm) is ±2° C.
The maximum Tm values induced by 12 different ligands as determined by circular dichroism measurements at 228 nm are summarized in the first column of Table II. All of these ligands stabilize aFGF by 15°-25° C. in a manner similar to that originally observed with heparin. […] Furthermore, sulfate unions are found near analogous residues in the crystal structure of basic FGF, Eriksson et al., Proc. Natl. Acad. Sd. USA 88:3441-3445 (1991); Zhang et al., Proc. Natl. Acad. Sci. USA 88:3446-3450 (1991). Consequently, it seemed important to examine the ability of these ligands to stabilize aFGF during thermal denaturation as monitored by both fluorescence and circular dichroism. The Tm value of aFGF increased from 27° C. to 43° C. (fluorescence)and 45° C. to 51° C. (CD) when a 100 molar excess (3X by weight) of (IrCl6)^-3 was present. Similarly, sulfate union (120 mM) produced a species that was even more dramatically stabilized, melting at 57° C. (CD).
^(a) Thermal melting temperatures were measured by circular dichroism
Samples contained […] aFGF in PBS buffer pH 7.2 with excess ligand
(1-3× by weight except for 120 mM sodium sulfate and 10 mM

[3] = target: T1, aFGF; assay: Copper-catalyzed oxidation of aFGF thiol groups; details: 6 M GuHCl, 10 minutes, 1 μM CuCl2, 5 μM aFGF
[4] = target: T1, aFGF; assay: Thermal denaturation (Tm) of aFGF by fluorescence spectroscopy; details: no heparin, PBS pH 7.2
Method: Fluorescence spectra are obtained with a Spex Fluorolog-2 spectrofiuorometer using a 1 mm pathlength cuvette. Band passes from 1-2 nm are employed with sample absorptivities maintained below 0.1 at 280 nm. The temperature is controlled either manually or automatically as described above. Reproducibility of thermal denaturation temperatures (Tm) is ± 2° C.
To more directly ascertain the effect of heparin on aFGF stability, the temperature-induced denaturation of aFGF as a function of heparin concentration was monitored by fluorescence spectroscopy. Fluorescence spectra were obtained with a Spex Fluorolog-2 spectrofiuorometer using a 1 mm pathlength cuvette. Band passes from 1-2 nm were employed with sample absorptivities maintained below 0.1 at 280 nm. The temperature was controlled either manually or automatically as described above. Reproducibility of thermal denaturation temperatures (Tm) was ±2° C. […] Experiments were carried out at 100 μg/ml protein (6.3 μM) in a PBS buffer at pH 7.2. Curve drawn through data points for clarity only.
Studies of the stabilization of aFGF by heparin are difficult to interpret because of the inherent heterogeneity of heparin preparations, Lane and Lindahl, Eds. Heparin, Chemical and Biological Properties, Clinical Applications, Edward Arnold, London (1989); Jackson, et al., Physiol. Rev. 71: 481-539 (1991). In order to better understand the polyanionic stabilization of aFGF, a series of well-defined fragments of heparin were examined for their ability to stabilize aFGF against thermal denaturation. These enzymatically prepared and purified fragments varied in size from a disaccharide to a decasaccharide. Each fragment was incubated with aFGF at a 1:1 weight ratio in a PBS buffer. The sample was then stressed by temperature and structural changes in aFGF were monitored by both circular dichroism and fluorescence spectroscopy. […] All samples contained 100 μg/ml aFGF (6.3 μM)in a PBS buffer (pH 7.2) with 100 μg/ml of each heparin fragment.
Since these fragments of heparin have a well-defined molecular weight, the molar ratio of aFGF to ligand during these thermal denaturation experiments can be calculated. The Tm of aFGF as a function of the molar concentration of the hexasaccharide was measured by fluorescence spectroscopy. Fluorescence spectra were obtained with a Spex Fluorolog-2 spectrofiuorometer using a 1mm pathlength cuvette. Band passes from 1-2 nm were employed with sample absorptivities maintained below 0.1 at 280 nm. The temperature was controlled either manually or automatically as described above. Reproducibility of thermal denaturation temperatures (Tm) was ±2° C.
Analogous to the heparin experiments illustrated in Example 1 (FIG. 3), aFGF thermal stability was monitored by fluorescence spectroscopy as a function of concentration for several other of the polyanions. […] All samples contained 100 μg/ml of aFGF (6.3 μM) in a PBS buffer at pH 7.2.

T1 sequence (P05230 16-155 limits assumed): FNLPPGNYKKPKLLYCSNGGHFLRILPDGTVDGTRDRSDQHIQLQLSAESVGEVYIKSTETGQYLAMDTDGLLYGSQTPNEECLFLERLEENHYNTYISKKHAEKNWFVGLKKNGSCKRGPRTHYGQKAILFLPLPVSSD

“aFGF: human acidic fibroblast growth factor, molecular mass of about 15.9 kDa” was tested, and the “thiol groups of aFGF lost” value ([1]; 6 M GuHCl, 10 minutes) was ~100%, the “free thiols of aFGF lost” value ([1]; 10-minute incubation, absence of polyanions) was 60% and the “total thiol groups of aFGF reacted” value ([1]; buffer alone, after 6 hours, cupric chloride) was 70-75%. For the same substance, the “thiol groups of aFGF oxidized” value ([1]; buffer alone, within several minutes, cupric chloride) was 50-60%, the “Tm of aFGF, circular dichroism” value [2] was 45 °C and the “loss of thiol groups of aFGF” value [3] was 10%. For the same substance, the “thermal denaturation temperature (Tm) of aFGF, fluorescence” value [4] was 27 °C and the “thermal denaturation temperature (Tm) of aFGF, fluorescence” value ([4]; listed as native aFGF) was < 30 °C.

Source: patent US5348941A, “Stabilizers for fibroblast growth factors” (Merck & Co., Inc., priority 1992, dated 1994)
